In series [1] the target is T1, TGA2.1 (Oryza sativa (rice), UniProt Q7X993 1-334).
T1 sequence: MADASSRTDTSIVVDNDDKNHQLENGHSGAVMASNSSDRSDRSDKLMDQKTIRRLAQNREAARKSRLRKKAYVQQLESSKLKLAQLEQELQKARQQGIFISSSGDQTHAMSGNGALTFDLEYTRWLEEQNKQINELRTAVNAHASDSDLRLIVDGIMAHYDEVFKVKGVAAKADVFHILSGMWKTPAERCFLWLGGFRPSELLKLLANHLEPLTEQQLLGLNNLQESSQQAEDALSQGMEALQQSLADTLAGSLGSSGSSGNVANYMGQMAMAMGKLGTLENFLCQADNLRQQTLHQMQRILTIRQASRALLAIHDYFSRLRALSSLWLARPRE
The series can be described thus: competition; EMSA competitor 5X, 20X, 100X against biotin-wt probe; EMSA with biotin probe, chemiluminescent detection; buffer, salt, pH and temperature not stated. To be noted: protein: recombinant; chain copies: 2.

The target of series [2] is T1, TGA2.1. Nature of the series: EMSA; competed by unlabeled wt oligonucleotide (5X, 20X, 100X tested); EMSA with biotin probe, chemiluminescent detection; buffer, salt, pH and temperature not stated. To be noted: protein: recombinant; chain copies: 2; label: 5'-biotin on top strand (probe). In general terms: A gel shift assay detects complexes by their altered migration in electrophoresis.

B1: CRK10 promoter TGA site mt competitor (dsDNA)
DNA 1: CTCTTTGTGGTGTTGTTCTTC
DNA 2: GAAGAACAACACCACAAAGAG
Turning to B1, in the series with TGA2.1 [1], the binding result is “no binding”.

B2: CRK10 promoter TGA site wt probe (dsDNA)
DNA 1: CTCTTTGTGACGTTGTTCTTC
DNA 2: GAAGAACAACGTCACAAAGAG
Take B2: the binding result in the series with TGA2.1 [2] is on record as “binds”.

These data come from article PMC4866720, “A Genetic Screen Identifies a Requirement for Cysteine-Rich–Receptor-Like Kinases in Rice NH1 (OsNPR1)-Mediated Immunity”.
